These results are taken from ChEMBL document CHEMBL2074458, “Fluorescence-based assay for the interaction of small molecules with the human renal organic anion transporter 1” (Anal Biochem, 2000).

Substrate in the series: O=C(O)c1ccc(C(=O)O)c(-c2c3ccc(=O)cc-3oc3cc(O)ccc23)c1
The experiment in a line: TP_TRANSPORTER: uptake in OAT1-expressing CHO cells. It is filed as functional, cell-based.

B1: Solute carrier family 22 member 6 (Homo sapiens) (protein)
chain: MAFNDLLQQVGGVGRFQQIQVTLVVLPLLLMASHNTLQNFTAAIPTHHCRPPADANLSKNGGLEVWLPRDRQGQPESCLRFTSPQWGLPFLNGTEANGTGATEPCTDGWIYDNSTFPSTIVTEWDLVCSHRALRQLAQSLYMVGVLLGAMVFGYLADRLGRRKVLILNYLQTAVSGTCAAFAPNFPIYCAFRLLSGMALAGISLNCMTLNVEWMPIHTRACVGTLIGYVYSLGQFLLAGVAYAVPHWRHLQLLVSAPFFAFFIYSWFFIESARWHSSSGRLDLTLRALQRVARINGKREEGAKLSMEVLRASLQKELTMGKGQASAMELLRCPTLRHLFLCLSMLWFATSFAYYGLVMDLQGFGVSIYLIQVIFGAVDLPAKLVGFLVINSLGRRPAQMAALLLAGICILLNGVIPQDQSIVRTSLAVLGKGCLAASFNCIFLYTGELYPTMIRQTGMGMGSTMARVGSIVSPLVSMTAELYPSMPLFIYGAVPVAASAVTVLLPETLGQPLPDTVQDLESRWAPTQKEAGIYPRKGKQTRQQQEHQKYMVPLQASAQEKNGL
For orientation: Km means the concentration of substrate that gives half-maximal velocity. Consider B1, for which the Km amounted to 3.95 µM.
